Assay results from patent US20200330603A1, “PEPTIDES FOR RENAL THERAPY” (FRED HUTCHINSON CANCER RESEARCH CENTER, priority 2015, published 2020).
Several values for one entry are separate records, joined by “and”; a condition that tells them apart may be missing. Identical values can stand only once.

Experiments:
[1] = Blood urea nitrogen (BUN) assay in plasma, renal biocompatibility (Example 4); format: in vivo, mice; settings: 100 nmol per mouse intravenously, after 24 hours, one value per mouse
Procedure: This example describes renal biocompatibility of peptides of this disclosure. The peptides of SEQ ID NO: 18, SEQ ID NO: 20, SEQ ID NO: 21, SEQ ID NO: 26, SEQ ID NO: 36, SEQ ID NO: 39, SEQ ID NO: 45 and SEQ ID NO: 53 were intravenously dosed into mice at 100 nmol per mouse. After 24 hours, mice were anesthesized with Ketamine-Xylazine and euthanized. Plasma and kidneys were removed as quickly as possible after euthanization. A blood urea nitrogen (BUN) assay was performed to assess renal toxicity with a commercially available kit.
The average BUN concentration in plasma for naïve mice was 25 mg/dL, with a standard error of 2 mg/dL. The average BUN concentration in plasma for peptide-dosed mice was 21, with a standard error of 1 mg/dL.

[2] = Plasma BUN, assessment of renal injury (Example 14); format: in vivo, mice; settings: Table 3; 100 nmol iv (approximately 16 mg/kg), 24 hours post-peptide administration
Procedure: (§1) This example illustrates assessment of renal injury by peptides of this disclosure. Mice were injected intravenously at a dose of 100 nmol, which is approximately 16 mg/kg. PBS was administered as a negative control. At 24 hours post-peptide administration, mice were euthanized and plasma blood urea nitrogen (BUN) and plasma creatinine were measured. The blood urea nitrogen (BUN) assay was performed to assess renal toxicity with a commercially available kit. Plasma creatinine concentrations were determined using the colorimetrically corrected Jaffe reaction method. Additionally, the kidneys from these mice were removed, sectioned, and stained using periodic acid Schiff (PAS). […] Histological analysis corroborated the mRNA/protein data.

[3] = Plasma creatinine, Jaffe reaction method (Example 14); format: in vivo, mice; settings: Table 3; 100 nmol iv, 24 hours post-peptide administration
Procedure: as §1

[4] = Kidney histology, periodic acid Schiff (PAS) stain; format: in vivo, mice; settings: 24 hours after intravenous administration of 100 nmol
Procedure: as §1

trypsin = test: Peptide stability in the presence of trypsin, RP-HPLC; format: in vitro ADME; settings: 5 μg trypsin, pH 7.0, 30 minutes at 37.5° C.
Procedure: (§2) This example describes peptide stability in the presence of pepsin, trypsin, a reducing agent, or elevated temperature. Peptides were first suspended in 500 µl of ddH2O to a stock concentration of 2 mg/ml. […] These reactions were then quenched with 5 μg of soybean trypsin inhibitor (I) and, in some cases, 10 mM dithiothreitol (DTT). […] Temperature stability was tested by incubating peptides in non-reducing conditions at 70° C. for 1 hour. Stability was evaluated by RP-HPLC.

pepsin = test: Peptide stability in the presence of pepsin, RP-HPLC; format: in vitro ADME; settings: 20 μg pepsin, pH 1.05, 30 minutes at 37.5° C.
Procedure: as §2

[5] = Temperature stability at 70° C., RP-HPLC; format: physicochemical; settings: non-reducing conditions, 70° C. for 1 hour
Procedure: as §2

[6] = Peptide stability to a reducing agent (DTT), RP-HPLC; format: physicochemical; settings: 10 mM DTT in PBS, room temperature, 30 minutes
Procedure: as §2

[7] = Whole body autoradiography of 14C labeled peptides, renal cortex and blood; format: in vivo, mice; settings: for Signal ratio Kidney:Blood (3 hours) / Signal ratio Kidney:Blood (24 hours): renal cortex vs blood from the ventricle, 100 nmol iv; for Pixel density-Bkg/area (3 hours) / Pixel density-Bkg/area (24 hours): renal cortex, 100 nmol 14C labeled peptide iv
Excerpt: This example describes radiolabeling of peptides of this disclosure. Several knotted peptides were radiolabeled by reductive methylation with ^14C formaldehyde and sodium cyanoborohydride with standard techniques. The sequences were engineered to have the amino acids, “G” and “S” at the N terminus. See Methods in Enzymology V91:1983 p. 570 and JBC 254(11):1979 p. 4359. An excess of formaldehyde was used to ensure complete methylation (dimethylation of every free amine). The labeled peptides were isolated via solid-phase extraction on Strata-X columns (Phenomenex 8B-S100-AAK), rinsed with water with 5% methanol, and recovered in methanol with 2% formic acid. Solvent was subsequently removed in a blowdown evaporator with gentle heat and a stream of nitrogen gas. The final product was verified and characterized by high performance liquid chromatography (HPLC).
This example illustrates accumulation of peptides of the present disclosure in kidneys measured by whole body autoradiography. Peptides of the present disclosure were radiolabeled as described in EXAMPLE 2. 100 nmol of ^14C labeled peptides were administered intravenously in mice. Radiolabeled peptide signal was quantified in the renal cortex and blood from the ventricle in 2-3 sections per mouse in 2 mice total. Whole body autoradiography analysis was performed with AIDA.
SEQ ID NO: 55 and SEQ ID NO: 119 ([…]), a linearized version of SEQ ID NO: 55, were radiolabeled with ^14C as described in EXAMPLE 2 and administered intravenously in mice at a dose of 100 nmol. Radiolabeled peptide signal was quantified in the renal cortex and blood from the ventricle in 2-3 sections per mouse in 2 mice total. Whole body autoradiography analysis was performed with AIDA.

GGYSRCQLQGFNCVVRSYGLPTIPCCRGLTCRSYFPGSTYGRCQRY [SEQ ID NO: 53]
Peptide BUN [1]: 19 mg/dL and 22 mg/dL
Plasma BUN [2]: 20.5 mg/dL
Plasma Creatinine [3]: 0.35 mg/dL
renal physiology (PAS histology, FIG. 24) [4]: normal renal physiology

GSACLAEYQKCEGSTVPCCPGLSCSAGRFRKTKLCTK [SEQ ID NO: 32]
Trypsin (trypsin): Not Resistant
Pepsin (pepsin): Resistant
Temperature (70° C.) [5]: Resistant
Reduction [6]: Not Resistant

GSACQFWSCNSSCISRGYRQGYCWGIQYKYCQCQ [SEQ ID NO: 34]
Trypsin (trypsin): Partially Resistant
Reduction [6]: Not Resistant

GSAEIIRCSGTRECYAPCQKLTGCLNAKCMNKACKCYGCV [SEQ ID NO: 28]
Trypsin (trypsin): Not Resistant
Reduction [6]: Partially Resistant

GSAVCNLKRCQLSCRSLGLLGKCIGDKCECVKHG [SEQ ID NO: 22]
Trypsin (trypsin): Partially Resistant
Reduction [6]: Not Resistant

GSCIGEGVPCDENDPRCCFGLVCLKPTLHGIWYKSYYCYKK [SEQ ID NO: 30]
Trypsin (trypsin): Partially Resistant
Reduction [6]: Not Resistant

GSDCLPHLRRCRADNDCCGRRCRRRGTNAERRCR [SEQ ID NO: 1]
Trypsin (trypsin): Partially Resistant
Reduction [6]: Not Resistant

GSDRDSCIDKSRCSKYGYYQECQDCCKKAGHNGGTCMFFKCKCA [SEQ ID NO: 21]
Peptide BUN [1]: 23 mg/dL and 17 mg/dL
Plasma BUN [2]: 20 mg/dL
Plasma Creatinine [3]: 0.33 mg/dL
renal physiology (PAS histology, FIG. 24) [4]: normal renal physiology
Trypsin (trypsin): Partially Resistant
Reduction [6]: Not Resistant

GSECLEIFKACNPSNDQCCKSSKLVCSRKTRWCKYQIG [SEQ ID NO: 38]
Trypsin (trypsin): Not Resistant
Pepsin (pepsin): Resistant
Temperature (70° C.) [5]: Resistant
Reduction [6]: Not Resistant

GSEVIRCSGSKQCYGPCKQQTGCTNSKCMNKVCKCYGCG [SEQ ID NO: 8]
Trypsin (trypsin): Partially Resistant
Temperature (70° C.) [5]: Resistant
Reduction [6]: Not Resistant

GSGCFGYKCDYYKGCCSGYVCSPTWKWCVRPGPGR [SEQ ID NO: 16]
Trypsin (trypsin): Not Resistant
Pepsin (pepsin): Not Resistant
Temperature (70° C.) [5]: Resistant
Reduction [6]: Not Resistant

GSGDCLPHLRRCRENNDCCSRRCRRRGANPERRCR [SEQ ID NO: 59]
Signal ratio Kidney:Blood (3 hours) [7]: 31.2
Signal ratio Kidney:Blood (24 hours) [7]: 6.1
Pixel density-Bkg/area (3 hours) [7]: 3.47E+07
Pixel density-Bkg/area (24 hours) [7]: 2.13E+06

GSGVPINVKCRGSRDCLDPCKKAGMRFGKCINSKCHCTP [SEQ ID NO: 11]
Trypsin (trypsin): Resistant
Pepsin (pepsin): Resistant
Reduction [6]: Resistant

GSGVPINVRCRGSRDCLDPCRRAGMRFGRCINSRCHCTP [SEQ ID NO: 55]
Signal ratio Kidney:Blood (3 hours) [7]: 42.2 and 42.4
Signal ratio Kidney:Blood (24 hours) [7]: 10.7
Pixel density-Bkg/area (3 hours) [7]: 2.73E+07
Pixel density-Bkg/area (24 hours) [7]: 2.25E+06

GSGVPINVRSRGSRDSLDPSRRAGMRFGRSINSRSHSTP [SEQ ID NO: 119, reference compound]
Signal ratio Kidney:Blood (3 hours) [7]: 5.1
Signal ratio Kidney:Blood (24 hours) [7]: 6.9
Pixel density-Bkg/area (3 hours) [7]: 1.71E+06
Pixel density-Bkg/area (24 hours) [7]: 2.41E+06

GSISIGIKCSPSIDLCEGQCRIRKYFTGYCSGDTCHCSG [SEQ ID NO: 7]
Trypsin (trypsin): Partially Resistant
Temperature (70° C.) [5]: Resistant
Reduction [6]: Not Resistant

GSNCAGYMRECKEKLCCSGYVCSSRWKWCVLPAPWRR [SEQ ID NO: 25]
Trypsin (trypsin): Partially Resistant
Reduction [6]: Not Resistant

GSNFKVEGACSKPCRKYCIDKGARNGKCINGRCHCYY [SEQ ID NO: 19]
Trypsin (trypsin): Partially Resistant
Reduction [6]: Not Resistant

GSQFCGTNGKPCVNGQCCGALRCVVTYHYADGVCLKMNP [SEQ ID NO: 23]
Trypsin (trypsin): Partially Resistant
Reduction [6]: Not Resistant

GSQIDTNVKCSGSSKCVKICIDRYNTRGAKCINGRCTCYP [SEQ ID NO: 27]
Trypsin (trypsin): Not Resistant
Pepsin (pepsin): Not Resistant
Temperature (70° C.) [5]: Resistant
Reduction [6]: Not Resistant

GSQVQTNVKCQGGSCASVCRREIGVAAGKCINGKCVCYRN [SEQ ID NO: 17]
Trypsin (trypsin): Partially Resistant
Reduction [6]: Not Resistant

GSQVQTNVRCQGGSCASVCRREIGVAAGRCINGRCVCYRN [SEQ ID NO: 58]
Signal ratio Kidney:Blood (3 hours) [7]: 9.9
Signal ratio Kidney:Blood (24 hours) [7]: 4.1
Pixel density-Bkg/area (3 hours) [7]: 7.73E+06
Pixel density-Bkg/area (24 hours) [7]: 1.30E+06

GSQVSTNKKCSNTSQCYKTCEKVVGVAAGKCMNGKCICYP [SEQ ID NO: 37]
Trypsin (trypsin): Partially Resistant
Reduction [6]: Not Resistant

GSRPTDIKCSASYQCFPVCKSRFGKTNGRCVNGLCDCF [SEQ ID NO: 24]
Trypsin (trypsin): Partially Resistant
Reduction [6]: Resistant

GSSCAKPGEMCMRIKCCDGQCGCNRGTGRCFCK [SEQ ID NO: 31]
Trypsin (trypsin): Partially Resistant
Reduction [6]: Not Resistant

GSSCAKPRENCNRMNILCCRGECVCPTFGDCFCYGD [SEQ ID NO: 10]
Trypsin (trypsin): Not Resistant
Pepsin (pepsin): Resistant
Temperature (70° C.) [5]: Resistant
Reduction [6]: Not Resistant

GSSDYCSNDFCFFSCRRDRCARGDCENGKCVCKNCHLN [SEQ ID NO: 29]
Trypsin (trypsin): Partially Resistant
Reduction [6]: Not Resistant

GSSEKDCIKHLQRCRENKDCCSKKCSRRGTNPEKRCR [SEQ ID NO: 9]
Trypsin (trypsin): Partially Resistant
Reduction [6]: Not Resistant

GSSERDCIRHLQRCRENRDCCSRRCSRRGTNPERRCR [SEQ ID NO: 56]
Signal ratio Kidney:Blood (3 hours) [7]: 29.9
Signal ratio Kidney:Blood (24 hours) [7]: 7.5
Pixel density-Bkg/area (3 hours) [7]: 1.48E+07
Pixel density-Bkg/area (24 hours) [7]: 2.30E+06

GSSFGLCRLRRGFCARGRCRFPSIPIGRCSRFVQCCRRVW [SEQ ID NO: 45]
Peptide BUN [1]: 21 mg/dL and 22 mg/dL
Plasma BUN [2]: 21.5 mg/dL
Plasma Creatinine [3]: 0.39 mg/dL
renal physiology (PAS histology, FIG. 24) [4]: normal renal physiology

GSVRIPVSCKHSGQCLKPCKDAGMRFGKCMNGKCDCTPK [SEQ ID NO: 12]
Trypsin (trypsin): Not Resistant
Reduction [6]: Partially Resistant

GSVRIPVSCRHSGQCLRPCRDAGMRFGRCMNGRCDCTPR [SEQ ID NO: 57]
Signal ratio Kidney:Blood (3 hours) [7]: 8
Signal ratio Kidney:Blood (24 hours) [7]: 6.4
Pixel density-Bkg/area (3 hours) [7]: 4.63E+06
Pixel density-Bkg/area (24 hours) [7]: 1.03E+06

GSVVIGQRCYRSPDCYSACKKLVGKATGKCTNGRCDC [SEQ ID NO: 33]
Trypsin (trypsin): Not Resistant
Pepsin (pepsin): Resistant
Temperature (70° C.) [5]: Resistant
Reduction [6]: Not Resistant
